Data from patent US7227009B2, “MT-SP1 polynucleotides and polypeptides” (Catalyst Biosciences, Inc., priority 1999, dated 2007).
Like-named read-outs stand apart in the source and are kept apart here.

Experiments:
[1] = target: T1, His-MT-SP1 protease domain (Homo sapiens, UniProt Q9Y5Y6); test: Substrate kinetics of purified His-MT-SP1 protease domain; type: biochemical
T1 construct: made in house; host or cells: E. coli X-90 (pQE30 vector)
Description: The purified serine protease domain was titrated with 4-methylumbelliferyl p-guanidinobenzoate (MUGB) to obtain an accurate concentration of enzyme active sites^(iii). Enzyme activity was monitored at 25° C. in assay buffer containing 50 mM Tris pH 8.8, 50 mM NaCl, and 0.01% Tween 20. The final concentration of substrate Spectrozyme tPA ranged from 1 μM–400 μM. Enzyme concentrations ranged from 40 pM–800 pM. Active site titrations were performed on a Fluoromax-2 spectrofluorimeter. Measurements were plotted using the KaleidaGraph program (Synergy, Reading, Pa.), and the Km, kcat, and kcat/Km for Spectrozyme tPA was determined using the Michaelis-Menten equation.

[2] = target: T2, His-tagged MT-SP1 serine protease domain (Homo sapiens, UniProt Q9Y5Y6); test: Inhibition of MT-SP1 protease domain with ecotin and ecotin M84R/M85R; type: biochemical
T2 construct: made in house; host or cells: E. coli X-90 (pQE30 vector)
T2 sequence (Q9Y5Y6 615-855 limits assumed, other chains not shown): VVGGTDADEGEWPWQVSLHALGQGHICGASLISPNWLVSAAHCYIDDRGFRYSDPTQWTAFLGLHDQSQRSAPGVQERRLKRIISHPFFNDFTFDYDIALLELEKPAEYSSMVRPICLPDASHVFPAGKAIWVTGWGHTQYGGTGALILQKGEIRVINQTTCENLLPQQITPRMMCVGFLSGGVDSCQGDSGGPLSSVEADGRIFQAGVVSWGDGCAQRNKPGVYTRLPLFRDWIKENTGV
Description: Ecotin and ecotin M84R/M85R were purified from E. coli as described in copending application Ser. Nos. 09/290,513 and 09/289,830, both filed on Apr. 12, 1999. Various concentrations of ecotin or ecotin M84R/M85R were incubated with the His-tagged serine protease domain in a total volume of 990 μL of buffer containing 50 mM NaCl, 50 mM Tris-HCl (pH 8.8), 0.01% Tween 20. 10 μL of Spectrozyme tPA was added, yielding a solution containing 100 μM substrate. The final enzyme concentration was 63 pM, and the ecotin and ecotin M84R/M85R concentration ranged from 0.1 nM to 50 nM. The data were fit to the equation derived for kinetics of reversible tight-binding inhibitors (Morrison (1969) Biochim. Biophys. Acta 185: 269–286, Williams and Morrison (1979) Methods. Enzymol. 63: 437–467), and the values for apparent Ki were determined.

[3] = target: T3, uPA (Homo sapiens, UniProt P00749); details: cited from earlier work
[4] = system: tumor; test: Ecotin injected intraperitoneally, tumor growth; type: in vivo
[5] = system: PC-3 primary tumor; test: PC-3 implanted nude mice, inhibitor treatment; type: in vivo; details: treated seven weeks, compared to PBS-treated mice after four weeks
From the text: Another well characterized model that is derived from human prostate cancer epithelial cells is the PC-3 cell line (Kaighn et al. (1979) Invest. Urology 17: 16–23). The PC-3 cell line expresses uPA as assayed by enzyme-linked immunosorbent assay (ELISA) and by Northern blotting of PC-3 mRNA (Yoshida et al. (1994) Cancer Res. 54: 3300–3304). […] Metastasis from the primary tumors similarly were similarly lower in the inhibitor-treated mice compared to PBS treated mice. Inhibition was not unexpected with ecotin M84R/M85R treatment, since uPA has been implicated in metastasis. […] Thus identification of the serine proteases expressed by PC-3 prostate cells may provide insight into the role of these proteases in cancer and prostate growth and development. In this example we have extended the strategy of using the polymerase chain reaction (PCR) with degenerate oligonucleotide primers that were designed using conserved sequence homology (Sakanari et al. (1989) Proc. Natl. Acad. Sci. USA 86: 4863–4867; Wiegand et al. (1993) Gene 136: 167–175, Kang et al. (1992) Gene 110: 181–187) to identify additional serine proteases made by cancer cells. […]

[6] = system: explanted rat VP; test: Rodent ventral prostate (VP) explant culture; type: cell-based; details: for ductal branching morphogenesis and differentiation of rat ventral prostate: explant culture, testosterone-induced
From the text: One useful model system for studying many issues that are pertinent to prostate cancer is the development of the rodent ventral prostate (VP) in explant cultures. Macromolecular inhibitors of serine proteases of the chymotrypsin fold, ecotin and ecotin M84R/M85R (see copending application Ser. Nos. 09/290,513 and 09/289,830, both filed on Apr. 12, 1999), inhibit ductal branching morphogenesis and differentiation of the explanted rat VP. […] Thus unidentified serine proteases may play a role in growth and prevention of apoptosis in prostate epithelial cells in this system.

[7] = system: PC-3 cells; test: Subcutaneous coinjection of PC-3 cells with inhibitor; type: in vivo; details: subcutaneous coinjection with PC-3 cells, compared to PC-3 cells and saline
[8] = target: T3, uPA; test: Inhibition of uPA; type: biochemical

T1 sequence (Q9Y5Y6 615-855 limits assumed, other chains not shown): as above

| Molecule | hydrolysis of pNA substrate by the MT-SP1 protease domain [1] | inhibition of MT-SP1, in words [2] | inhibition of uPA, in words [3] | inhibitor potency against uPA [3] | tumor growth [4] | primary tumor size [5] | apoptosis in rat ventral prostate model [6] | ductal branching morphogenesis and differentiation of rat ventral prostate [6] | primary tumor size [7] | kcat [1] | Km ([1]; 25° C., 50 mM Tris pH 8.8, 50 mM NaCl, 0.01% Tween 20) | kcat ([1]; 25° C., pH 8.8) | fold more potent inhibitor of uPA compared to ecotin [8] |
| --- | --- | --- | --- | --- | --- | --- | --- | --- | --- | --- | --- | --- | --- |
| NC(N)=NCCC[C@H](N)C(=O)Nc1ccc([N+](=O)[O-])cc1 [H-Arg-pNA, arginyl-pNA] | does not cleave |  |  |  |  |  |  |  |  |  |  |  |  |
| ecotin: Macromolecular inhibitor of serine proteases of the chymotrypsin fold, purified from E. coli |  | potent, subnanomolar inhibitors | poor, micromolar inhibitor | 2800 nM | inhibited | significantly smaller | enhances | inhibits | decrease |  |  |  |  |
| hexahydrotyrosyl-Gly-Arg-pNA [Spectrozyme tPA] |  |  |  |  |  |  |  |  |  | 260 s⁻¹ | 31.4 ± 4.2 µM | 2.6×10^2±6.5 s^−1 |  |
| ecotin M84R/M85R: Engineered version of ecotin, macromolecular inhibitor of chymotrypsin-fold serine proteases (protein) AESVQPLEKIAPYPQAEKGMKRQVIQLTPQEDESTLKVELLIGQTLEVDCNLHRLGGKLENKTLEGWGYDYYVFDKVSSPVSTRRACPDGKKEKKFVTAYLGDAGMLRYNSKLPIVVYTPDNVDVKYRVWKAEEKIDNAVVR |  | potent, subnanomolar inhibitors |  | 1 nM |  | significantly smaller | enhances | inhibits | decrease |  |  |  | 2800 fold |
